In patent publication US20260201069A1, “ANTIBODIES THAT SPECIFICALLY BIND MODIFIED OLIGONUCLEOTIDES” (Hoffmann-La Roche Inc., priority 2024, published 2026):

Experiments:
[1] = test system: LNA-modified ASOs and antibody-ASO conjugates; experiment: SPR binding; details: summary in words
Method: (§1) In more detail, LNA binding of the antibodies according to the current invention was characterized by surface plasmon resonance (SPR) using a BIAcore instrument with a HEPES-based running and dilution buffer at 25° C. About 100-200 resonance units (RU) of an anti-LNA antibody with an Fc-region of the human IgG1 subclass and the mutations P329G, L234A and L235A (according to Kabat EU index; human IgG Fc-PGLALA) or an anti-LNA Fab fragment with human CL and CH1 (kappa, IgG1 isotype), respectively, was captured on the surface of a Series S Sensor Chip CM3 derivatized by standard amine coupling with either a mouse anti-human IgG Fc-PGLALA antibody or a goat anti-human F(ab′2) antibody with final total surface densities of approximately 5000 RU. Different LNA-modified ASOs were passed over the derivatized SPR chip surface by injecting the respective solutions in a 1:3 dilution series up to a final concentration of 1000 nM. Association was monitored for 3 min and dissociation for 5 min at a flow rate of 30 μl/min each. Bulk refractive index differences were corrected by subtracting blank injections and by subtracting the response obtained from the reference flow cell without captured antibody. Curve fitting was performed using the 1:1 Langmuir binding model within the BIAcore evaluation software.
Further analyses of the pan anti-LNA antibody according to the invention produced by clone 1.9.21 a trivalent, bispecific format was used. This trivalent, bispecific format comprises an IgG1 Fc-region (with knobs-into-holes-cys1 mutations) to which at one of the N-termini of the Fc-region a germline Fab (DP47; SEQ ID NO: 137 and 138) has been fused and at both of the C-termini of the Fc-region each one anti-LNA Fab (fab 0699) according to the current invention produced by clone 1.9.21 has been fused (fusion 1861). […]
To assess the specificities and affinities of LNA-binding antibodies, surface plasmon resonance was done as described in WO 2020/141117 and WO 2022/175217. […] Association was monitored for 3 min. and dissociation for 5 min. at a flow rate of 30 μl/min each. […]

ASO 420 = experiment: SPR (BIAcore) binding kinetics and affinity; details: analyte ASO 420; bivalent IgG format; 25° C.; read-out: K
Method: as §1
(§2) To assess the binding specificities and affinities of the LNA-binding antibodies according to the current invention, surface plasmon resonance was used as described, e.g., in WO 2020/141117 and WO 2022/175217.
(§3) To assess the specificities and affinities of LNA-binding antibodies, surface plasmon resonance was done as described in WO 2020/141117 and WO 2022/175217. ASO binding was investigated by surface plasmon resonance (SPR) using a BIAcore T200 instrument (Cytiva). As a running and dilution buffer, HEPES buffered saline (HBS) containing 0.05% PS20 was used, the temperature was set to 25° C. For capturing anti-LNA Fabs or complete anti-LNA antibodies to a Series S Sensor Chip CM3 (Cytiva), either a mouse anti-human IgG antibody (Roche Diagnostics GmbH) or a goat anti-human F(ab′2) antibody (Jackson ImmunoResearch) was immobilized using standard amine coupling chemistry with final total surface densities of approximately 5000 resonance units (RU). The anti-LNA antibodies were captured to the surface by an injection for 30 sec., leading to response levels of approx. 100-200 RU. Different ASO molecules were injected in a 1:3 dilution series up to 1000 nM. Association was monitored for 3 min. and dissociation for 5 min. at a flow rate of 30 μl/min each. Subsequently, the surface was regenerated by injecting 10 mM NaOH (anti-human IgG antibody surface) or 10 mM Glycine pH 1.7 (anti-human IgG F(ab′2) antibody surface) for 60 sec. Bulk refractive index differences were corrected by subtracting blank injections and by subtracting the response obtained from the reference flow cell without captured antibody. Curve fitting was performed using the 1:1 Langmuir binding model within the BIAcore evaluation software.

ASO 297 = experiment: SPR (BIAcore) binding kinetics and affinity; details: analyte ASO 297; bivalent IgG format; 25° C.; read-out: K
Method: as §1, §2, §3

ASO 827 = experiment: SPR (BIAcore) binding kinetics and affinity; details: analyte ASO 827; bivalent IgG format; 25° C.; read-out: K
Method: as §1, §2, §3

[2] = test system: fusion 2899 (antibody-ASO 918 conjugate); experiment: SPR (BIAcore) binding kinetics and affinity; details: analyte fusion 2899; bivalent IgG format; 25° C.; read-out: K
Method: as §1, §2, §3

ASO 042 = experiment: SPR (BIAcore) binding kinetics and affinity; details: analyte ASO 042, bivalent IgG format, 25° C.
Method: as §1, §2, §3

[3] = test system: fusion 2489 (antibody-ASO 918 conjugate); experiment: SPR (BIAcore) binding kinetics and affinity; details: analyte fusion 2489; bivalent IgG format; 25° C.; read-out: K
Method: as §1, §2, §3

B1: mAb 5393: anti-LNA antibody produced by clone 1.9.21 in the bivalent standard Y-shaped IgG format (antibody, V domains shown)
VH: QVQLQQSGAELVRPGTSVKVSCKASGYAFTNYLIEWIKQRPGQGLEWIGVINPGSGGTNYNEKFRVKATLTADKSSSTAYMQLSSLTSDDSAVYFCARGGGYYWGQGTLVTVSA
VL: DIVMTQAAPSVPVTPGESVSISCRSSKSLLHSNGNTYLFWFLQRPGQSPQVLIYRMSNLASGVPDRFSGSGSGTAFTLRISRVEAEDVGVYYCMQHLEYPYTFGSGTRLEIK
With B1 the “binding to the tested analytes (ASOs and antibody-ASO conjugates)” value [1] was “binds to all of the tested ASOs and antibody-ASO conjugates with good affinity”, the Kd (ASO 420) was 0.0379 nM and the Kd (ASO 297) was 26.2 nM. For the same molecule, the Kd (ASO 827) was 0.0414 nM, the Kd [2] was 0.169 nM and the Kon (ASO 042; oos = out of specification) was “oos”. The Kd (ASO 042; read-out: K) was less than 1 nM and the Kd [3] was 0.116 nM.
